From paper PMC6550527, “Evolution of Superinfection Immunity in Cluster A Mycobacteriophages”

T1: RepTrixie immunity repressor (Mycobacteriophage Trixie, UniProt G1JV33 1-192)
T1 sequence: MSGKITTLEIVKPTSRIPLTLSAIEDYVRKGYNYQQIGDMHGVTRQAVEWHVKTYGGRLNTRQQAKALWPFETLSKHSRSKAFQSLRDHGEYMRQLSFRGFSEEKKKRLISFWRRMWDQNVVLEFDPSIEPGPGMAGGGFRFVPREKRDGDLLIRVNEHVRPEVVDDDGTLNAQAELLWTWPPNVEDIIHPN

B1: Trixie stoperator 30-bp (dsDNA)
DNA 1: TGAGCAGTACTTGACATTCACCAGGTTGGG
DNA 2: CCCAACCTGGTGAATGTCAAGTACTGCTCA
B2: RedRock stoperator 30-bp (dsDNA)
DNA 1: TAAGGCGAACTTGACATCCACCGGGTTGGG
DNA 2: CCCAACCCGGTGGATGTCAAGTTCGCCTTA

Biological target: T1, RepTrixie immunity repressor
Experiment: EMSA; EMSA on 8% polyacrylamide gel, serially diluted Rep with 5'-32P 30-bp dsDNA; binding buffer and temperature not given (ref. 54); protein storage buffer 50 mM Tris pH 8.0, 150 mM NaCl, 0.1 mM EDTA, 0.1 mM DTT, 50% glycerol
Conditions: protein: recombinant; chain copies: 2; label: 5' 32P; blunt

Binder | Kd
B1 | ~6.48 nM
B2 | ~6.48 nM
